Assay results as given in patent publication US20230272056A1 (Merck Sharp & Dohme, published 2023).
Substitutions are numbered along the chain they refer to. Numbers in names are those of the source.

B1: VH G57D (27BIT) (Fab, V domains shown)
VH: EVQLVQSGAEVKKPGASVKVSCKASGYTFTSYWMHWVRQAPGQGLEWMGRIDPQSGDIKYAQKFQGRATLTVDTSTSTAYMELSRLRSDDTAVYYCARWDYGGYFDVWGQGTLVTVSS
VL: DIQMTQSPSSLSASVGDRVTITCRASQDITNYLNWYQQKPGKAVKLLIYYTSRLHSGVPSRFSGSGSGTDYTLTISSLQPEDFATYFCQQGDTLPWTFGQGTKLEIKR
notes: Light chain: parental 20E6 LC, implied
B2: VH G57E (63BIT) (Fab, V domains shown)
VH: B1 VH with D57E
VL: B1 VL
notes: as for B1
B3: VH S31K (24BIT) (Fab, V domains shown)
VH: B1 VH with S31K, D57G
VL: B1 VL
notes: as for B1
B4: VH H35R (62BIT) (Fab, V domains shown)
VH: B1 VH with H35R, D57G
VL: B1 VL
notes: as for B1
B5: VH H35K (30BIT) (Fab, V domains shown)
VH: B1 VH with H35K, D57G
VL: B1 VL
notes: as for B1
B6: VH K59Q (28BIT) (Fab, V domains shown)
VH: B1 VH with D57G, K59Q
VL: B1 VL
notes: as for B1
B7: VH S31R (25BIT) (Fab, V domains shown)
VH: B1 VH with S31R, D57G
VL: B1 VL
notes: as for B1
B8: VH G102S (29BIT) (Fab, V domains shown)
VH: B1 VH with D57G, G102S
VL: B1 VL
notes: as for B1
B9: VH K59W (61BIT) (Fab, V domains shown)
VH: B1 VH with D57G, K59W
VL: B1 VL
notes: as for B1
B10: VL L54Y (51BIT) (Fab, V domains shown)
VH: B1 VH with D57G
VL: B1 VL with L54Y
B11: VL T93Y (58BIT) (Fab, V domains shown)
VH: B1 VH with D57G
VL: B1 VL with T93Y
B12: VL T51Y (48BIT) (Fab, V domains shown)
VH: B1 VH with D57G
VL: B1 VL with T51Y
B13: VL Q27Y (41BIT) (Fab, V domains shown)
VH: B1 VH with D57G
VL: B1 VL with Q27Y
B14: VL L94Y (59BIT) (Fab, V domains shown)
VH: B1 VH with D57G
VL: B1 VL with L94Y
B15: VL R24Y (38BIT) (Fab, V domains shown)
VH: B1 VH with D57G
VL: B1 VL with R24Y
B16: VL I29Y (43BIT) (Fab, V domains shown)
VH: B1 VH with D57G
VL: B1 VL with I29Y
B17: VL N34Y (47BIT) (Fab, V domains shown)
VH: B1 VH with D57G
VL: B1 VL with N34Y
B18: VL L33Y (46BIT) (Fab, V domains shown)
VH: B1 VH with D57G
VL: B1 VL with L33Y
B19: VL R53Y (50BIT) (Fab, V domains shown)
VH: B1 VH with D57G
VL: B1 VL with R53Y
B20: VL Q89Y (54BIT) (Fab, V domains shown)
VH: B1 VH with D57G
VL: B1 VL with Q89Y
B21: VL S52Y (49BIT) (Fab, V domains shown)
VH: B1 VH with D57G
VL: B1 VL with S52Y
B22: VL N31Y (45BIT) (Fab, V domains shown)
VH: B1 VH with D57G
VL: B1 VL with N31Y
B23: VL T30Y (44BIT) (Fab, V domains shown)
VH: B1 VH with D57G
VL: B1 VL with T30Y
B24: VL Q90Y (55BIT) (Fab, V domains shown)
VH: B1 VH with D57G
VL: B1 VL with Q90Y
B25: VL S26Y (40BIT) (Fab, V domains shown)
VH: B1 VH with D57G
VL: B1 VL with S26Y
B26: VL S56Y (53BIT) (Fab, V domains shown)
VH: B1 VH with D57G
VL: B1 VL with S56Y
B27: VL P95Y (60BIT) (Fab, V domains shown)
VH: B1 VH with D57G
VL: B1 VL with P95Y

What follows are binders tested against T1, human LAP-TGFB1 Fc fusion (human) (assay: BLI off-rate screen).
T1 construct: also called human LAP-TGFβ1-Fc; human LAP-TGFβ-Fc isoform 1
T1 sequence (chain, as listed by the source limits assumed): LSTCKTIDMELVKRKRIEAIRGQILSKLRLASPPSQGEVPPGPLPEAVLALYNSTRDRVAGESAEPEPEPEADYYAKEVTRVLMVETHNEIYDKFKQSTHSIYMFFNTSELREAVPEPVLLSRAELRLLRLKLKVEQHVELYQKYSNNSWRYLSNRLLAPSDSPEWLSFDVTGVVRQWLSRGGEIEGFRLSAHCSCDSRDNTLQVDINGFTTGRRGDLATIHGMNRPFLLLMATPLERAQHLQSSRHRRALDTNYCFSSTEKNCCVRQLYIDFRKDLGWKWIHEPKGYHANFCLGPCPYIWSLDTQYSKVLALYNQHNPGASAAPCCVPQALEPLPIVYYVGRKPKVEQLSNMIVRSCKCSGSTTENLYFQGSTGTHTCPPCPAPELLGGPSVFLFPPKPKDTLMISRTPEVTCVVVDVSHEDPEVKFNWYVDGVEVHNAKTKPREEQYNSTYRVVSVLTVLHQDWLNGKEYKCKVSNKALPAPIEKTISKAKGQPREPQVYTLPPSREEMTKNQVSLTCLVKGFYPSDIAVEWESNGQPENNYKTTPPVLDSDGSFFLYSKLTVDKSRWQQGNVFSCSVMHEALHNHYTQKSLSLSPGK
Method: (§1) The Fab mutants including a positive control, 20E6 Fab, and a negative control Fab (Molecular Innovations, catalog HU-FAB-4510) were diluted to 200 nM in assay buffer and loaded to FAB2G sensors for 180 seconds followed by a one-hour incubation at room temperature in assay buffer to equilibrate the tips. The Fab loaded sensors were assessed for binding with 100 nM human LAP-TGFβ for 180 seconds followed by a 180 second dissociation phase in assay buffer on a ForteBio HTX (software version 9.0.0.66). Non-specific binding to the negative control Fab was subtracted and the binding sensorgrams were aligned to the start of the association phase on the X and Y axis. The Fab binding was fit with the 1:1 binding model, dissociation phase only, with local fitting using ForteBio Data Analysis 9.0 software.

| Binder | Binding response [nm] | Fold change [fold] | koff [s⁻¹] | binding result |
| --- | --- | --- | --- | --- |
| B1 | 0.582 | 1.3 | 0.0337 | – |
| B2 | 0.69 | 1.1 | 0.0393 | – |
| B3 | 0.625 | 1.1 | 0.037 | – |
| B4 | 0.021 | – | – | no binding (tested: 100 nM antigen) |
| B5 | 0.115 | 0.8 | 0.0548 | – |
| B6 | 0.165 | 0.7 | 0.0596 | – |
| B7 | 0.069 | 1 | 0.0437 | – |
| B8 | 0.087 | 0.5 | 0.0845 | – |
| B9 | 0.035 | – | – | no binding (tested: 100 nM antigen) |

Target: T1, human LAP-TGFB1 Fc fusion
Assay: BLI off-rate screen
Remark: another data set of the same source
Method: as §1
Twenty-three variants containing a single tyrosine substitution in the light chain CDRs (at one of amino acid positions 24-31, 33, 34, 51-56, and 89-95 according to Kabat numbering scheme) and 21 similar heavy chain CDR variants (at amino acids positions 28-31, 33-35, 50-58 including 52a, 95, 96, 98, and 99 according to Kabat numbering scheme) were generated according to FIG. 1 and listed in Table 6 and their interactions with human LAP-TGFb1 were analyzed by ForteBio interferometry. […] In those sequences the VL is correct, even though these sequences are from the heavy chain. Thus, the VL_X ##Y refers to the position of the tyrosine mutation within the antibody, regardless of whether the sequence is a heavy or light chain.

| Binder | Binding response [nm] | Fold change [fold] | koff [s⁻¹] | binding result |
| --- | --- | --- | --- | --- |
| B10 | 0.299 | 1 | 0.0405 | – |
| B11 | 0.586 | 1.5 | 0.0273 | – |
| B12 | 0.204 | 0.8 | 0.0508 | – |
| B13 | 0.427 | 1.8 | 0.0229 | – |
| B14 | 0.308 | 0.7 | 0.0571 | – |
| B15 | 0.446 | 1.6 | 0.027 | – |
| B16 | 0.071 | 1.6 | 0.0264 | – |
| B17 | 0.221 | 1 | 0.0436 | – |
| B18 | 0.095 | 1 | 0.0413 | – |
| B19 | 0.365 | 1.6 | 0.027 | – |
| B20 | 0.035 | – | – | no binding (tested: 100 nM antigen) |
| B21 | 0.431 | 1 | 0.0409 | – |
| B22 | 0.344 | 1.8 | 0.0241 | – |
| B23 | 0.472 | 2.6 | 0.0162 | – |
| B24 | 0.04 | – | – | no binding (tested: 100 nM antigen) |
| B25 | 0.371 | 1.5 | 0.0283 | – |
| B26 | 0.344 | 1.3 | 0.0324 | – |
| B27 | 0.015 | – | – | no binding (tested: 100 nM antigen) |
